Molecular target: the molecule itself
Assay: cross-linking

Row | Protein | binding result
1 | proteasomal 20S core particle subunit α1 with His6 tag (α1-His6) (natural protein, Haloferax volcanii, UniProt Q9V2V6 1-252, looked up) MQGQAQQQAYDRGITIFSPDGRLYQVEYAREAVKRGTASIGVRTPEGVVLAADKRSRSPLMEPTSVEKIHKADDHIGIASAGHVADARQLIDFARRQSQVNRLRYGEPIGIETLTKEVTDHIQQYTQVGGARPFGVALLIGGVENGTPRLYETDPSGTPYEWKAVSIGADRGDHQEHLEENFRDDLTLDEGIELALEAIASTSDEGTAPDGVDVATVSAETERFVELSNDEIESYLEANDLLATEDDEQTEE | binds
2 | proteasomal 20S core particle subunit α2 with C-terminal His6 tag (α2-His6) (natural protein, Haloferax volcanii, UniProt Q9V2V5 1-249, looked up) MNRNDKQAYDRGTSLFSPDGRIYQVEYAREAVKRGAPVLGVRTADGVVLAALRSTPSELMEAESIEKLHKLDDALGAATAGHVADARKLVDFARTTAQREHLRYGEPIGVETLTKTITDNIQESTQSGGTRPYGASLLIGGVENGSGRLFATDPSGTPQEWKAVAIGGHREDVQAALEDGYAEDLSLEDGLALAVEALVAADEEIESDELNLVTVSEAGYEIVDEETIAELFADATADDESDETDEREE | binds
